Laboratory results: US5180678A, “Uses of substantially pure interleukin-9 receptor” (Ludwig Institute for Cancer Research, priority 1992, dated 1993)

Biological target: T1, IL-9R (Mus musculus, UniProt Q01114)
T1 sequence (Q01114 38-468): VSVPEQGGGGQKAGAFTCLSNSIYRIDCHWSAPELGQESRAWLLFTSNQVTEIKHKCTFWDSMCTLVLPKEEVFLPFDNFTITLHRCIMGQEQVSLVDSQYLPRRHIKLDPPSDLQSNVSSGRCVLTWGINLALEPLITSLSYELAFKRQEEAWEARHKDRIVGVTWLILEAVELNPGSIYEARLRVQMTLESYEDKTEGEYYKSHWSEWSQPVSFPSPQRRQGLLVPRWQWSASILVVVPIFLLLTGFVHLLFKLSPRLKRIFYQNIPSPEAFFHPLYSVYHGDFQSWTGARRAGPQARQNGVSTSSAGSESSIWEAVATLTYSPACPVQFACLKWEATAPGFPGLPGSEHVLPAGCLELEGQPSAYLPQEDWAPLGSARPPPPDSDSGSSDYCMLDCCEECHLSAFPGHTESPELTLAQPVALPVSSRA
Experiment: Cellular distribution of IL-9R: specific binding of 125I-labeled IL-9 to cell types
Parameters: a number of different cell types were tested for the presence of the IL-9R molecule; endogenous in cells
Description: The molecular nature of the IL-9R was studied via affinity cross linking experiments. In these, 5×10^6 cells (TS1)/ml were incubated for three hours at 4° C. in 140 ul of binding medium, either with 1.3×10^-10 M of labeled rIL-9, or the labeled cytokine mixed with 3.1×10^-8 M of the unlabeled material. After two washes with 1 ml of cold, phosphate buffered saline (PBS) at pH 7.4, cells were resuspended in 2.25 ml of cold PBS (pH 8.4), containing 1 mM MgCl2. Disuccinimidyl suberate, solubilized in dimethylsulfoxide, was added at a final concentration of 10 ug/ml. This cross links the cytokine to the cell. […] After a 30 minute incubation on ice, the reaction was quenched by adding 2.5 ml of cold 10 mM TRIS-HCl (pH 7.4) and 1 mM EDTA. The cells were centrifuged and the resulting pellet was resuspended in 50 ul of cold lysis buffer (Tris-HCl 126 mM, pH 7.5 containing 0.7% Triton-X100, 2 mM phenylmethylsulfonyl fluoride (PMSF)), 10 mM EDTA, 10 mM 2-mercaptoethanol, and, in some cases 0.2 mM pepstatin, 2 mM O-phenanthrolin and 0.1 mM leupeptin were included. […] Following extraction, the detergent mixture was incubated for 30 minutes on ice, with insoluble material being removed by centrifuging for 15 minutes at 10,000 rpm. Supernatant was boiled for 90 seconds in the presence of 3 mg/ml of SDS, and was diluted twice with lysis buffer.
Following the protocols of Example 5, a number of different cell types were tested for the presence of the IL-9R molecule.
±Cells were incubated with ^125 Ilabeled IL9.

Substance: IL-9: lymphokine interleukin-9, T-cell derived growth factor; in Tables II and III the 125I-labelled recombinant form is used
- Specific Binding (B lymphocytes LPS-blasts, 125I-labeled IL-9 3.2 × 10^-10 M): -- (below detection limit (<10 mol/cell))
- Specific Binding (B lymphocytes unstimulated, 125I-labeled IL-9 3.2 × 10^-10 M): -- (below detection limit (<10 mol/cell))
- Specific Binding (B-cell hybridoma 7TD1, 125I-labeled IL-9 3.2 × 10^-10 M): -- (below detection limit (<10 mol/cell))
- Specific Binding (CTL clone CTL P1:5, 125I-labeled IL-9 1.6 × 10^-10 M): -- (below detection limit (<10 mol/cell))
- Specific Binding (CTL clone CTL P1:204, 125I-labeled IL-9 6.2 × 10^-11 M): -- (below detection limit (<10 mol/cell))
- Specific Binding (CTL clone CTL P35:10, 125I-labeled IL-9 3.3 × 10^-10 M): -- (below detection limit (<10 mol/cell))
- Specific Binding (CTL clone CTL P35:48, 125I-labeled IL-9 1.3 × 10^-10 M): -- (below detection limit (<10 mol/cell))
- Specific Binding (CTL clone CTL P91:6, 125I-labeled IL-9 1.3 × 10^-10 M): -- (below detection limit (<10 mol/cell))
- Specific Binding (Carcinoa 3LL (Lewis Lung), 125I-labeled IL-9 6.2 × 10^-11 M): -- (below detection limit (<10 mol/cell))
- Specific Binding (Factor-dependent T cells ST2K9.4A2, 125I-labeled IL-9 4.1 × 10^-10 M): 1415 mol/cell
- Specific Binding (Factor-dependent T cells TS1, 125I-labeled IL-9 5.6 × 10^-10 M): 2235 mol/cell
- Specific Binding (Factor-dependent T cells TUC.51S1, 125I-labeled IL-9 1.3 × 10^-10 M): 663 mol/cell
- Specific Binding (Fibroblasts A-9, 125I-labeled IL-9 6.2 × 10^-11 M): -- (below detection limit (<10 mol/cell))
- Specific Binding (Fibrosarcoma MethA, 125I-labeled IL-9 6.2 × 10^-11 M): -- (below detection limit (<10 mol/cell))
- Specific Binding (KLH-primed lymph nodes (C57B/6 mice), 125I-labeled IL-9 6.2 × 10^-10 M): -- (below detection limit (<10 mol/cell))
- Specific Binding (Lymphoma LBRM-33-1A5, 125I-labeled IL-9 5.6 × 10^-10 M): 599 mol/cell
- Specific Binding (Macrophages Bone marrow derived, 125I-labeled IL-9 4.1 × 10^-10 M): 195 mol/cell
- Specific Binding (Macrophages P399D1, 125I-labeled IL-9 6.2 × 10^-11 M): 16 mol/cell
- Specific Binding (Macrophages PU5-1,8, 125I-labeled IL-9 1.3 × 10^-10 M): 229 mol/cell
- Specific Binding (Mast cell line L138.C, 125I-labeled IL-9 4.1 × 10^-10 M): 331 mol/cell
- Specific Binding (Mast cell line L138.8A, 125I-labeled IL-9 4.1 × 10^-10 M): 2208 mol/cell
- Specific Binding (Myeloid Cell Line DA-1, 125I-labeled IL-9 3.2 × 10^-10 M): 18 mol/cell
- Specific Binding (Myeloid Cell Line Ea3,15, 125I-labeled IL-9 5.6 × 10^-10 M): -- (below detection limit (<10 mol/cell))
- Specific Binding (Myeloid Cell Line FDC-P1, 125I-labeled IL-9 5.6 × 10^-10 M): -- (below detection limit (<10 mol/cell))
- Specific Binding (Myelomonocytic leukemia WEHI.3B, 125I-labeled IL-9 7.5 × 10^-10 M): -- (below detection limit (<10 mol/cell))
- Specific Binding (Normal lymph nodes, 125I-labeled IL-9 6.2 × 10^-10 M): -- (below detection limit (<10 mol/cell))
- Specific Binding (Plasmacytoma TEPC1033C, 125I-labeled IL-9 3.2 × 10^-10 M): -- (below detection limit (<10 mol/cell))
- Specific Binding (Spleen Cells, 125I-labeled IL-9 3.2 × 10^-10 M): -- (below detection limit (<10 mol/cell))
- Specific Binding (T lymphocytes ConA-blasts, 125I-labeled IL-9 3.2 × 10^-10 M): -- (below detection limit (<10 mol/cell))
- Specific Binding (T lymphocytes unstimulated, 125I-labeled IL-9 3.2 × 10^-10 M): -- (below detection limit (<10 mol/cell))
- Specific Binding (T-cell leukemia L1210, 125I-labeled IL-9 5.6 × 10^-10 M): -- (below detection limit (<10 mol/cell))
- Specific Binding (T-cell leukemia LEB, 125I-labeled IL-9 6.2 × 10^-11 M): -- (below detection limit (<10 mol/cell))
- Specific Binding (T-cell leukemia TH1, 125I-labeled IL-9 5.6 × 10^-10 M): 273 mol/cell
- Specific Binding (Thymocytes, 125I-labeled IL-9 3.2 × 10^-10 M): -- (below detection limit (<10 mol/cell))
- Specific Binding (Thymoma BW5147, 125I-labeled IL-9 6.2 × 10^-10 M): 120 mol/cell
- Specific Binding (Thymoma EL4.16, 125I-labeled IL-9 7.5 × 10^-10 M): 263 mol/cell
